{
  "source": "patent US9616101B2",
  "about": "“Differentiation marker and differentiation control of eye cell” (Kyoto Prefectural Public University Corporation, priority 2012, dated 2017)",
  "molecules": {"B1": {"name": "R-spondin 1: Recombinant Human R-spondin 1 (R&D Cat. 4645-RS); ligand of GPR49/LGR5 (protein, listed as Homo sapiens)", "chain": "MRLGLCVVALVLSWTHLTISSRGIKGKRQRRISAEGSQACAKGCELCSEVNGCLKCSPKLFILLERNDIRQVGVCLPSCPPGYFDARNPDMNKCIKCKIEHCEACFSHNFCTKCKEGLYLHKGRCYPACPEGSSAANGTMECSSPAQCEMSEWSPWGPCSKKQQLCGFRRGSEERTRRVLHAPVGDHAACSDTKETRRCTVRRVPCPEGQKRRKGGQGRRENANRNLARKESKEAGAGSRRRKGQQQQQQQGTVGPLTSAGPA"}},
  "key": {"[1]": {"tested_on": "cultured monkey corneal endothelial cell", "assay": "Detection of proliferating cells with Click-iT EdU Imaging Kit after R-spondin 1 addition", "format": "cell-based, cynomolgus monkey", "conditions": "10 ng/ml or 50 ng/ml R-spondin 1; almost confluent cells; 48 hours after addition", "method": "After addition of an R-spondin 1 protein to a cultured monkey corneal endothelial cell and culturing for 48 hours, a cell during proliferation was detected using the Click-iT Edu imaging Kit, and the positivity rates of EdU and the cell densities of a control cell and a cell to which R-spondin 1 was added were compared.\nEdU (5-ethynyl-2′-deoxyuridine) is a modified nucleic acid taken into DNA at a DNA synthesis phase by a chemical reaction, and is widely used in place of a conventional BrdU for identifying a DNA synthesis phase cell. By measuring the positivity rate of EdU, the proliferative cell rate in a cultured cell is found.\nA cultured monkey corneal endothelial cell (Lot. 20111222-4 P2) was treated with 0.05% trypsin at 37° C. for 10 minutes, peeled from a T-25 flask, and suspended in a culture medium (10% FBS+bFGF/DMEM). The number of cells was counted, and the suspension was adjusted with a culture medium to 3×10^4 cells/300 μl. Cells were seeded on a Lab-TekII chamber Slide (8 well) coated with FNS, in 300 μl/well.\nAt 7 days after cell seeding, a medium was exchanged with a medium containing R-spondin 1 (0, 10, 50 ng/ml) in the state where cells were almost confluent, and at 24 hours after addition of R-spondin 1, Click-iT EdU was added so that the final concentration was 10 μM. […]"}, "[2]": {"tested_on": "cultured human corneal endothelial cell", "assay": "Culture of human corneal endothelial cells with or without RSPO: cell morphology and cell density", "format": "cell-based", "from_the_text": "GPR49/LGR5 was an orphan receptor of a G protein-coupled receptor superfamily, and a ligand thereof was not known previously. […] In order to determine the function of RSPO on CEC differentiation, the present inventors cultured primate CEC with human recombinant RSPO, or without human recombinant RSPO. […] In order to determine the function of RSPO on CEC proliferation, the present inventors performed immunohistochemical research on Ki67. […] In view of these findings, the present inventors considered that among a RSPO family, particularly, RSPO1 can play an important role in maintenance of CEC.\nFinally, in order to further determine influence of RSPO1 on CEC, the present inventors maintained a secondary culture of human CEC in the presence or absence of RSPO1. […] The cell density of a RSPO1-treated cell increased as compared with that of a non-treated cell (FIG. 6B-E). In order to verify which pathway regulated this type of corneal endothelial MT, the present inventors investigated the expression level of a Wnt/β-catenin-associated molecule using Western blotting analysis. […] Further, the protein level of a cell transfected with NT and GPR49/LGR5 and treated with RSPO1 decreased as compared with that of a cell group not treated with RSPO1 (FIG. 6B-F).\nA cultured human corneal endothelial cell was cultured for 7 days under conditions of 37° C. and 5% CO2, with being divided into a group of addition of RSPO1 (50 ng/ml) and a group of addition of no RSPO1. […] From the above result, the effect of suppressing differentiation of a corneal endothelial cell was recognized in RSPO1."}, "[3]": {"tested_on": "human corneal endothelial cell in the confluent state", "assay": "Cell density of confluent human corneal endothelial cells cultured with R-spondin 1", "format": "cell-based", "conditions": "R-spondin 1 10 ng/ml, 566.8 at addition", "from_the_text": "• (Source and culture method): As a human corneal endothelial cell, a corneal endothelial cell was mechanically peeled together with a basal membrane from a cornea for research, purchased from Seattle Eye Bank, and the corneal endothelial cell was peeled and recovered from the basal membrane using collagenase (ROCHE catalog No.: 10 103 586 001), and was subjected to primary culturing. As a medium, for human, Opti-MEM I Reduced-Serum Medium, Liquid (INVITROGEN catalog No.: 31985-070), 8% fetal bovine serum (FES) (BIOWEST, catalog No.: S1820-500), […] CaCl2.2H2O (SIGMA catalog No.: C7902-500G), 0.08% chondroitin sulfate (SIGMA catalog No.: C9819-5G), 20 μg/ml ascorbic acid (SIGMA catalog No.: A4544-25G), 50 μg/ml gentamicin (INVITROGEN catalog No.: 15710-064) and 5 ng/ml EGF (INVITROGEN catalog No.: PHG0311), acclimated for a 3T3 feeder cell, were used.\nAfter subculturing, at the time point where cells reached confluent and were cultured for 2 weeks or longer, and no clear change in the corneal endothelium density was recognized, R-spondin 1 was added into a medium in a concentration of 10 ng/ml, and culture was continued. Observation of cell morphology was performed with a phase contrast microscope, and the cell density was calculated."}, "[4]": {"tested_on": "corneal endothelial cell of rabbit sclerocorneal section", "assay": "Organ culture of rabbit sclerocorneal section with R-spondin 1: Ki67-positive cell rate", "format": "cell-based, white rabbit", "conditions": "control about 1.0%", "method": "Eyeballs of white rabbit (Nacalai) euthanized for another object were purchased, and a sclerocorneal section was prepared. The sclerocorneal section was cultured in an incubator at 37° C. for 1 week in DMEM (INVITROGEN, catalog No.: 12320) and 10% fetal bovine serum (FBS) (BIOWEST, catalog No.: 51820-500). […] A corneal endothelial cell was subjected to nuclear staining with DAPI, and the Ki67-positive cell rate was calculated. In addition, a corneal endothelial cell was immunostained with ZO-1, and the cell density was calculated."}},
  "note": "Entries after “also recorded” stand apart in the source; their conditions may differ.",
  "data": [
    {"molecule": "B1", "values": [
      {"measurement": "EdU-positive cell/DAPI as compared with a control", "setting": "[1]", "value": "increased two times; also recorded: increased twice"},
      {"measurement": "cell morphology / in vitro CEC differentiation (phase contrast)", "setting": "[2]; 50 ng/ml (FIG. 6C-B)", "value": "compact and uniform hexagonal cell having a smaller size"},
      {"measurement": "cell form in secondary culture of human CEC", "setting": "[2]; RSPO1 50 ng/ml (FIG. 6B-E), without RSPO1 fibroblast-like phenotype", "value": "maintained its hexagonal form"},
      {"measurement": "morphology of a cell", "setting": "[2]; RSPO1 50 ng/ml, 7 days, non-addition group differentiated into fibroblast-like cells", "value": "maintained in a cobblestone manner"},
      {"measurement": "cell density as compared with a non-treated cell", "setting": "[2]; secondary culture of human CEC, RSPO1 50 ng/ml", "value": "increased"},
      {"measurement": "corneal endothelial cell density", "setting": "[3]; 7th day", "value": "about 695 cells/mm^2"},
      {"measurement": "corneal endothelial cell density", "setting": "[3]; after 14 days", "value": "about 875 cells/mm^2"},
      {"measurement": "corneal endothelial cell density", "setting": "[3]; after 21 days, control without R-spondin 1 535.4", "value": 995.8, "unit": "cells/mm^2"},
      {"measurement": "rate of a Ki67-positive cell", "setting": "[4]; 1 ng/ml R-spondin 1, 1 week", "value": 4.49, "unit": "%"},
      {"measurement": "rate of a Ki67-positive cell", "setting": "[4]; 10 ng/ml R-spondin 1, 1 week", "value": 10.58, "unit": "%"},
      {"measurement": "rate of a Ki67-positive cell", "setting": "[4]; 100 ng/ml R-spondin 1, 1 week", "value": 7.94, "unit": "%"}
    ]}
  ]
}
